The values that follow come from patent US20120329854.

Data set [1] concerns the target histone H3 in untreated nucleosomes purified from HeLa cells, P68431.
The target in data set [2] is H3K4me2 peptide (H3 tail residues 1-20), P68431.
The target in data set [3] is H3K4me3 peptide (H3 tail residues 1-20), P68431.
In data set [4] the target is H3K4me2T6ph peptide (H3 tail residues 1-20), P68431.
Data set [5] addresses H3K4me3T6ph peptide (H3 tail residues 1-20), P68431.

B1: purified recombinant active PKCζ (ProQinase) (protein)
chain: MPSRTGPKMEGSGGRVRLKAHYGGDIFITSVDAATTFEELCEEVRDMCRLHQQHPLTLKWVDSEGDPCTVSSQMELEEAFRLARQCRDEGLIIHVFPSTPEQPGLPCPGEDKSIYRRGARRWRKLYRANGHLFQAKRFNRRAYCGQCSERIWGLARQGYRCINCKLLVHKRCHGLVPLTCRKHMDSVMPSQEPPVDDKNEDADLPSEETDGIAYISSSRKHDSIKDDSEDLKPVIDGMDGIKISQGLGLQDFDLIRVIGRGSYAKVLLVRLKKNDQIYAMKVVKKELVHDDEDIDWVQTEKHVFEQASSNPFLVGLHSCFQTTSRLFLVIEYVNGGDLMFHMQRQRKLPEEHARFYAAEICIALNFLHERGIIYRDLKLDNVLLDADGHIKLTDYGMCKEGLGPGDTTSTFCGTPNYIAPEILRGEEYGFSVDWWALGVLMFEMMAGRSPFDIITDNPDMNTEDYLFQVILEKPIRIPRFLSVKASHVLKGFLNKDPKERLGCRPQTGFSDIKSHAFFRSIDWDLLEKKQALPPFQPQITDDYGLDNFDTQFTSEPVQLTPDDEDAIKRIDQSEFEGFEYINPLLLSTEESV
On to B1, for which the “phosphorylation of nucleosomes at H3T6 (in vitro kinase assay, Western blot with α-H3T6ph)” value (“phosphorylation of nucleosomes at H3T6” below) in data set [1] is “only PKCα, 131 and 132 phosphorylate nucleosomes at H3T6 (PKCζ tested, no phosphorylation)”.

B2: purified recombinant active PKCι (ProQinase) (protein)
chain: MSHTVAGGGSGDHSHQVRVKAYYRGDIMITHFEPSISFEGLCNEVRDMCSFDNEQLFTMKWIDEEGDPCTVSSQLELEEAFRLYELNKDSELLIHVFPCVPERPGMPCPGEDKSIYRRGARRWRKLYCANGHTFQAKRFNRRAHCAICTDRIWGLGRQGYKCINCKLLVHKKCHKLVTIECGRHSLPQEPVMPMDQSSMHSDHAQTVIPYNPSSHESLDQVGEEKEAMNTRESGKASSSLGLQDFDLLRVIGRGSYAKVLLVRLKKTDRIYAMKVVKKELVNDDEDIDWVQTEKHVFEQASNHPFLVGLHSCFQTESRLFFVIEYVNGGDLMFHMQRQRKLPEEHARFYSAEISLALNYLHERGIIYRDLKLDNVLLDSEGHIKLTDYGMCKEGLRPGDTTSTFCGTPNYIAPEILRGEDYGFSVDWWALGVLMFEMMAGRSPFDIVGSSDNPDQNTEDYLFQVILEKQIRIPRSLSVKAASVLKSFLNKDPKERLGCHPQTGFADIQGHPFFRNVDWDMMEQKQVVPPFKPNISGEFGLDNFDSQFTNEPVQLTPDDDDIVRKIDQSEFEGFEYINPLLMSAEECV
As to B2, the “phosphorylation of nucleosomes at H3T6” value in data set [1] is “only PKCα, 131 and 132 phosphorylate nucleosomes at H3T6 (PKCι tested, no phosphorylation)”.

B3: baculovirus expressed and purified GST-JARID1B (protein)
chain: MEAATTLHPGPRPALPLGGPGPLGEFLPPPECPVFEPSWEEFADPFAFIHKIRPIAEQTGICKVRPPPDWQPPFACDVDKLHFTPRIQRLNELEAQTRVKLNFLDQIAKYWELQGSTLKIPHVERKILDLFQLNKLVAEEGGFAVVCKDRKWTKIATKMGFAPGKAVGSHIRGHYERILNPYNLFLSGDSLRCLQKPNLTTDTKDKEYKPHDIPQRQSVQPSETCPPARRAKRMRAEAMNIKIEPEETTEARTHNLRRRMGCPTPKCENEKEMKSSIKQEPIERKDYIVENEKEKPKSRSKKATNAVDLYVCLLCGSGNDEDRLLLCDGCDDSYHTFCLIPPLHDVPKGDWRCPKCLAQECSKPQEAFGFEQAARDYTLRTFGEMADAFKSDYFNMPVHMVPTELVEKEFWRLVSTIEEDVTVEYGADIASKEFGSGFPVRDGKIKLSPEEEEYLDSGWNLNNMPVMEQSVLAHITADICGMKLPWLYVGMCFSSFCWHIEDHWSYSINYLHWGEPKTWYGVPGYAAEQLENVMKKLAPELFVSQPDLLHQLVTIMNPNTLMTHEVPVYRTNQCAGEFVITFPRAYHSGFNQGFNFAEAVNFCTVDWLPLGRQCVEHYRLLHRYCVFSHDEMICKMASKADVLDVVVASTVQKDMAIMIEDEKALRETVRKLGVIDSERMDFELLPDDERQCVKCKTTCFMSAISCSCKPGLLVCLHHVKELCSCPPYKYKLRYRYTLDDLYPMMNALKLRAESYNEWALNVNEALEAKINKKKSLVSFKALIEESEMKKFPDNDLLRHLRLVTQDAEKCASVAQQLLNGKRQTRYRSGGGKSQNQLTVNELRQFVTQLYALPCVLSQTPLLKDLLNRVEDFQQHSQKLLSEETPSAAELQDLLDVSFEFDVELPQLAEMRIRLEQARWLEEVQQACLDPSSLTLDDMRRLIDLGVGLAPYSAVEKAMARLQELLTVSEHWDDKAKSLLKARPRHSLNSLATAVKEIEEIPAYLPNGAALKDSVQRARDWLQDVEGLQAGGRVPVLDTLIELVTRGRSIPVHLNSLPRLETLVAEVQAWKECAVNTFLTENSPYSLLEVLCPRCDIGLLGLKRKQRKLKEPLPNGKKKSTKLESLSDLERALTESKETASAMATLGEARLREMEALQSLRLANEGKLLSPLQDVDIKICLCQKAPAAPMIQCELCRDAFHTSCVAVPSISQGLRIWLCPHCRRSEKPPLEKILPLLASLQRIRVRLPEGDALRYMIERTVNWQHRAQQLLSSGNLKFVQDRVGSGLLYSRWQASAGQVSDTNKVSQPPGTTSFSLPDDWDNRTSYLHSPFSTGRSCIPLHGVSPEVNELLMEAQLLQVSLPEIQELYQTLLAKPSPAQQTDRSSPVRPSSEKNDCCRGKRDGINSLERKLKRRLEREGLSSERWERVKKMRTPKKKKIKLSHPKDMNNFKLERERSYELVRSAETHSLPSDTSYSEQEDSEDEDAICPAVSCLQPEGDEVDWVQCDGSCNQWFHQVCVGVSPEMAEKEDYICVRCTVKDAPSRK
For B3, the “demethylation assay, mass spectrometry” value is “Recombinant, purified JARID1B (FIG. 9) efficiently demethylates H3K4me3 and H3K4me2 peptides” in data set [2]; “Recombinant, purified JARID1B (FIG. 9) efficiently demethylates H3K4me3 and H3K4me2 peptides” in data set [3]; “demethylation of tri- and dimethyl H3K4 peptides phosphorylated at T6 (H3K4me3T6ph and H3K4me2T6ph) is severely impaired” in data set [4]; “demethylation of tri- and dimethyl H3K4 peptides phosphorylated at T6 (H3K4me3T6ph and H3K4me2T6ph) is severely impaired” in data set [5].

B4: purified recombinant active PKCµ (ProQinase) (protein)
chain: MSAPPVLRPPSPLLPVAAAAAAAAAALVPGSGPGPAPFLAPVAAPVGGISFHLQIGLSREPVLLLQDSSGDYSLAHVREMACSIVDQKFPECGFYGMYDKILLFRHDPTSENILQLVKAASDIQEGDLIEVVLSASATFEDFQIRPHALFVHSYRAPAFCDHCGEMLWGLVRQGLKCEGCGLNYHKRCAFKIPNNCSGVRRRRLSNVSLTGVSTIRTSSAELSTSAPDEPLLQKSPSESFIGREKRSNSQSYIGRPIHLDKILMSKVKVPHTFVIHSYTRPTVCQYCKKLLKGLFRQGLQCKDCRFNCHKRCAPKVPNNCLGEVTINGDLLSPGAESDVVMEEGSDDNDSERNSGLMDDMEEAMVQDAEMAMAECQNDSGEMQDPDPDHEDANRTISPSTSNNIPLMRVVQSVKHTKRKSSTVMKEGWMVHYTSKDTLRKRHYWRLDSKCITLFQNDTGSRYYKEIPLSEILSLEPVKTSALIPNGANPHCFEITTANVVYYVGENVVNPSSPSPNNSVLTSGVGADVARMWEIAIQHALMPVIPKGSSVGTGTNLHRDISVSISVSNCQIQENVDISTVYQIFPDEVLGSGQFGIVYGGKHRKTGRDVAIKIIDKLRFPTKQESQLRNEVAILQNLHHPGVVNLECMFETPERVFVVMEKLHGDMLEMILSSEKGRLPEHITKFLITQILVALRHLHFKNIVHCDLKPENVLLASADPFPQVKLCDFGFARIIGEKSFRRSVVGTPAYLAPEVLRNKGYNRSLDMWSVGVIIYVSLSGTFPFNEDEDIHDQIQNAAFMYPPNPWKEISHEAIDLINNLLQVKMRKRYSVDKTLSHPWLQDYQTWLDLRELECKIGERYITHESDDLRWEKYAGEQGLQYPTHLINPSASHSDTPETEETEMKALGERVSIL
Regarding B4, the “phosphorylation of nucleosomes at H3T6” value in data set [1] is “only PKCα, 131 and 132 phosphorylate nucleosomes at H3T6 (PKCµ tested, no phosphorylation)”.
